Source: the supplement of paper PMC12042874
± gives the uncertainty stated by the source.

Assay: amyloid nucleation score (Sup35N fusion, yeast selection) (log enrichment); library NNK1; higher = more nucleation; inactive = no reads after selection
Method in brief: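 After 24 hours of induction with 100 μM copper sulfate, psi-negative yeast expressing peptides of 20 random codons fused to Sup35N were grown for 7 days at 30°C on medium lacking adenine and uracil. Input and output plasmid inserts were sequenced with Illumina, and sequences with under 100 input reads were discarded. Scores for nucleation are the DiMSum log enrichment of output over input reads, centred on the mode score of non-aggregating sequences.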

Substance	amyloid nucleation score
RFGWISMYSCSRWHCMRNLY	1.13 ± 0.19
RFIVM	0.304 ± 0.78
RFLGIRTATMDMGSKERMWV	0.601 ± 0.44
RFLRAPGLCSVCSCE	-0.729 ± 0.85
RFLVFC	inactive
RFNREFMSSSVLRSWNDGYG	-0.635 ± 0.62
RFRKHRFVVLLCYWCLVFRE	0.766 ± 1.2
RFSSQTFY	-1.08 ± 2.4
RFSWMQLWCECVLHY	-0.162 ± 0.3
RFTLCCRMNGLVRYMSEN	inactive
RFWAACSFTDGR	1.71 ± 0.13
RFYTYQNDVAGSDDKFSMLC	-0.232 ± 0.24
RGCRSCAFLIPGLVLCWWKE	0.069 ± 0.62
RGDLTPDARSYGPCSIHRWR	inactive
RGFLRRHGGKGFNVLQAVGR	1.16 ± 0.72
RGIAVWCTN	0.286 ± 0.97
RGLQNCASSTVRESGR	0.009 ± 1
RGNLGLDLWICSGYRMVMFQ	-0.784 ± 0.3
RGRPLLGRMRFSSAGRAAFW	-0.418 ± 1.5
RGSKVFSSDALVSRLARRVG	-0.462 ± 0.5
RGSWIPVKQRLKVPQRDGLG	0.207 ± 0.28
RGVYNDSMERMPDNCSFYNK	-0.641 ± 1.5
RGYLMHMTVAKILSVVKKRA	-2.16 ± 2.7
RHGKASSSEWNAYRARDRGV	0.761 ± 0.82
RHIVFDRPSISFWLKSRKRR	0.501 ± 0.64

Substance	amyloid nucleation score
RHLLSSYRGFLLEQVSASNS	1.51 ± 0.38
RHVNEAESAGEGTGNYSRYS	-0.206 ± 0.41
RICLLRRGVCTHNVDMVVMY	-0.873 ± 0.68
RIDLGQTVFMVKYIAA	0.122 ± 0.17
RIEHISQRQCMTFSIVTVVN	-0.49 ± 1.1
RIFNKDSLGI	-0.554 ± 0.48
RIGLWCACMCRATTPVRGIE	-0.317 ± 0.46
RIIQGFLAM	-0.153 ± 1.4
RILRCNPLLCRNSACTGIGA	0.742 ± 0.75
RIRIFNKKSGMGQRWILVEG	-0.006 ± 0.73
RIRVDVEWSARRPG	2.19 ± 0.17
RISLVPRDASPESSTKSSSI	inactive
RIVQLFSRRNMRCFFIKE	3.07 ± 0.09
RIYKSWSFRTLRLPEC	2.25 ± 0.1
RIYRHIIVTGDNII	2.57 ± 0.56
RIYTTWGHYDNDHQIYLFRG	-0.601 ± 0.36
RIYTYSNCVGLKLAFTFAYR	0.642 ± 0.36
RKCWGSKEGVKKT	-0.62 ± 0.39
RKDRLTIGNRNL	0.73 ± 0.69
RKEISGLMVLLEANLVTWFV	-0.085 ± 0.3
RKHIRYTLVREIPLKSFSQY	0.043 ± 0.28
RKIEWTVSLRGGRKCYFSGE	-0.012 ± 0.3
RKRHSDNYRCEVNRS	-0.235 ± 0.52
RKSVKRVAKGGNS	3.82 ± 0.14
RLAFLIDRWVALRNEWRKGV	-0.791 ± 0.72

Substance	amyloid nucleation score
RLCASYSKYETFVADARRDG	0.413 ± 0.19
RLCFRASRETFLCNRFNY	inactive
RLCPTVRVQRLMFFPVCPGP	-0.035 ± 0.42
RLCRYLKYRYG	0.839 ± 1.1
RLDCIHNFALNSYFRIGAWG	-0.215 ± 0.45
RLDYFLCITYMIDQDRWRIT	-0.254 ± 1.1
RLFRTLGSDRGLFKEYF	0.734 ± 0.84
RLHPCRVATRPQHYT	inactive
RLLDFMFVGVLLACFGVQRW	1.39 ± 0.29
RLLFLMSWSSVVWINCRVWS	0.657 ± 0.6
RLLSLLINMTVVVWLSRKT	2.43 ± 0.25
RLMTASTALGPYTRDLGAYY	-0.089 ± 1.2
RLMVRGLDGKTFHSFFDSIL	inactive
RLNHEFFGYKRKTKLAGGLR	-0.107 ± 1.2
RLPLHHTCYVIC	0.468 ± 1.2
RLPRQYVMG	-0.279 ± 0.66
RLRFLNYTDAG	-1.2 ± 1.5
RLRNLYLQSFDRLCAVCKGY	0.197 ± 0.35
RLRWI	-0.057 ± 0.23
RLSLAESAPLVNFVSTALGK	-0.168 ± 0.93
RLSNYFNLECEQIRSYYRYM	1.85 ± 0.11
RLTECSYCCNSDYITHMELL	-0.317 ± 0.29
RLVLILSYYVRWNWGREDN	inactive
RLWNSRWFPGNLNCWVKLEW	0.044 ± 1.1
RLYFYGFRDSLWQFNLSEEH	7.619 ± 0.052

Substance	amyloid nucleation score
RLYKN	0.161 ± 0.9
RMAKYNFVIISVTDDVRQKC	2.42 ± 0.14
RMCLDGPITWFDRHK	2.16 ± 0.15
RMDSRKGTNNKSFSGGLEYR	-0.366 ± 0.32
RMDWWLEERASSSCDEELLT	inactive
RMLIDGLSLVVDWRYVVEGG	-0.192 ± 0.31
RMMFCVVAESGFQVWEVRSG	-0.502 ± 0.42
RMMLVV	-0.181 ± 0.37
RMMSGRWFMMWWLLVANRGV	inactive
RMQRNRGYPKVLLDMN	-0.472 ± 0.46
RMWRYASCHYI	1.73 ± 0.76
RNCEEGFWRSEQPDHTYKLA	-0.955 ± 0.62
RNCNNVYFELSVLASFLRVR	8.107 ± 0.05
RNCWGANLFDMWIRKSFR	0.067 ± 0.77
RNINLANHGCSSISLVYLPS	2.8 ± 0.21
RNLVWDMNAFKHVFCEDIHY	0.396 ± 0.69
RNLWGCMIWGMRG	1.83 ± 0.36
RNQDLLHFLVVGIAVKKYNY	-0.598 ± 0.35
RNSLNTLSPTARCSVSTFVR	0.562 ± 1.2
RPCFGFLGYNNAV	0.109 ± 1.4
RPGVGAVRSHSAGRMGGYGD	-0.057 ± 1.7
RPGWSHRITENLPFVEKVGP	-0.502 ± 0.7
RPTLDVIRNCRVDFAEKGGN	0.711 ± 0.35
RQMRPLGRGPS	-0.169 ± 0.84
RQPVRAMHLDISVRWSYWSV	2.79 ± 0.12

Substance	amyloid nucleation score
RQVPPISGAISWGDSPSNGG	0.18 ± 1.2
RRGGDSMDYNCFSARSRAFM	-0.146 ± 0.71
RRGRLYSKLCLCRF	0.874 ± 0.92
RRIRFNIRFTTCL	0.802 ± 0.74
RRKESYYGSSTYVSTNYAL	-0.075 ± 0.68
RRNVM	0.519 ± 0.25
RRRIEHAALVCV	0.055 ± 1.1
RRRYSC	-0.307 ± 0.42
RRSISWNIRSEDLR	0.85 ± 0.48
RRSQGAYLLNDGVRGIL	-0.057 ± 0.28
RRSSSFSGIWYVSVGYNASL	-0.316 ± 0.53
RRVSLH	0.416 ± 0.6
RRWYTSHLLWGRNISAGDIL	-0.221 ± 0.44
RRYRVLANISS	0.66 ± 0.49
RRYWVIIIEVAGSRSVETPV	-0.823 ± 0.51
RSASAREHNTALRSRPARVG	-0.353 ± 1.7
RSCLQGFGIFAMAIMD	0.367 ± 0.79
RSDWFHMCNNT	2.38 ± 0.089
RSEELYGQDVQEKSAGPRVS	-0.089 ± 1.2
RSEGKNMADS	-0.46 ± 1.1
RSFTCVMDRSDVEVGQCLGS	-0.6 ± 0.77
RSFVLLGFPSY	-0.882 ± 0.66
RSGNVAQEMSMHPTWYEWS	0.954 ± 0.31
RSHAIHVYKQLCHRVVFIWL	1.39 ± 0.46
RSIMWNLFHDF	0.789 ± 0.51

Substance	amyloid nucleation score
RSIRSIESNYYLRNVTFISR	1.09 ± 0.31
RSLFLDCS	-0.475 ± 0.91
RSLKMINNYISKLHVLMGFH	-0.281 ± 0.76
RSLNPVISFLN	-0.329 ± 0.69
RSMACVRLFDFQSQLYFRVF	-0.186 ± 0.77
RSNCWFEV	0.035 ± 0.4
RSNEIVEFGSPWYKMTKGMR	0.44 ± 0.31
RSNTRCAFKNFIFSMTCAFK	0.823 ± 0.5
RSQCQAGCELYGFA	-0.303 ± 0.78
RSQPLGADVVKLPASRLGRL	-1.11 ± 0.94
RSRLPGCDFVPLYEVH	-0.472 ± 0.44
RSSCVELGWIGWRARTNR	0.407 ± 0.57
RSTISGWR	inactive
RSVCYIKNPVVAREFLVLSA	inactive
RSVFEKNWVGCITEMTIWFA	-0.47 ± 0.73
RSWVCSSGLMVLRWNGRSYF	inactive
RSYCKRALMLDWFAISRMRL	0.082 ± 0.51
RTCVIVKMNSTIALYLGQKE	2.52 ± 0.12
RTDFLMFIGCVMNKICTLKA	0.73 ± 0.33
RTFFRFKMSPWCINDYIMMR	0.222 ± 1.2
RTGLY	0.108 ± 0.33
RTIGFTEELP	-0.577 ± 0.96
RTIIDESVTAFLIWFCYVTV	-0.21 ± 0.26
RTMEYAPGCLVAFDYK	0.24 ± 0.44
RTMKRSLSCVHCLLCLSPCQ	-0.102 ± 0.29

Substance	amyloid nucleation score
RTNSWAESHRSHCVCATSCG	-0.743 ± 0.6
RTPVLSCWWFEYMELRGQST	-0.412 ± 1.7
RTRFTDASMVWDANFMSNLY	inactive
RTSVLVSASALPNSLSFRQG	-0.647 ± 1.1
RVCMLLYCQVKVGTVN	2.3 ± 0.11
RVEFHGIR	1.62 ± 0.32
RVFLTSLEDRVHTLGQATNT	1.39 ± 0.5
RVHQGLFDGNKAYQTGIHWN	0.041 ± 0.25
RVIILMFTHRTCNS	-1.07 ± 2.7
RVMVSGNAPSFVLNGGVSVR	0.874 ± 0.62
RVNFSDTYTSSGGFALGMST	0.43 ± 0.3
RVSKYQYCIMYWRYRAI	0.442 ± 0.56
RVVLGTGDLVSCRFIFSLEK	-1.25 ± 0.44
RWTEKGK	-0.332 ± 1.9
RYDSVFVIS	-0.129 ± 1.2
RYGVGLCAYMFFSCVDFRSG	1.65 ± 0.4
RYLYVPALPFNFLCL	1.63 ± 0.1
RYRRFCFALVYMRKNI	-0.184 ± 0.42
RYTFQFNYV	0.224 ± 0.38
RYVLFALWWYKVGAEIYNKV	0.48 ± 0.69
RYWYMTGMAMLNK	0.58 ± 0.84
